Experimental findings from patent US20240059757A1 are described below.

Assay [1] has as its target SARS-CoV-2 Spike protein (SARS-CoV-2 Wuhan-Hu-1) (UniProt P0DTC2). In words: cell-based or functional assay.
In assay [2] the target is WIV1 spike protein RBD (WIV1). The assay can be described thus: BLI. For orientation: In BLI a coated tip is dipped into the sample, and binding shifts an interference pattern.
For assay [3], the target named is BGR2008 spike protein RBD (BGR2008). In words: BLI.
Assay [4] addresses WIV1 spike protein RBD (WIV1). The assay can be described thus: BLI. The source holds these as a separate data set.
For assay [5], the target named is BGR2008 spike protein RBD (BGR2008). In words: BLI. This is another data set of the same source.
The target of assay [6] is PANG/GD spike protein RBD (PANG/GD). In words: ELISA. Background: ELISA stands for enzyme-linked immunosorbent assay.
The target of assay [7] is PANG/GX spike protein RBD (PANG/GX). In words: ELISA.
In assay [8] the target is SX2011 spike RBD (SX2011). The assay can be described thus: ELISA.
The target of assay [9] is BtKY72 spike protein RBD (BtKY72). The assay can be described thus: ELISA.
Assay [10] has as its target Anlong112 spike RBD (Anlong112). The assay can be described thus: ELISA.
In assay [11] the target is YN2013 spike RBD (YN2013). The assay can be described thus: ELISA.
Assay [12] concerns the target BGR2008 spike protein RBD (BGR2008). In words: ELISA.
Assay [13] deals with RaTG13 spike protein RBD (RaTG13). In words: ELISA.
Assay [14] addresses SC2018 spike RBD (SC2018). The assay can be described thus: ELISA.
Assay [15] deals with SC2018 spike RBD (SC2018). The assay can be described thus: BLI; *no optimal fitting.
Assay [16] addresses PANG/GX spike protein (PANG/GX). In words: cell-based or functional assay.
For assay [17], the target named is PANG/GD spike protein (PANG/GD). In words: cell-based or functional assay.
In assay [18] the target is ZC45 spike protein RBD (ZC45).
For assay [19], the target named is BtKY72 spike protein RBD (BtKY72).
Assay [20] has as its target BGR2008 spike protein RBD (BGR2008).
Assay [21] has as its target PANG/GX spike protein RBD (PANG/GX).
In assay [22] the target is PANG/GD spike protein RBD (PANG/GD).
For assay [23], the target named is WIV1 spike protein RBD (WIV1).
Assay [24] deals with RaTG13 spike protein RBD (RaTG13).
Assay [25] addresses SC2018 spike RBD (SC2018).

Where two headings read alike, the source gives them in different places.

Sequence of S2X259 (antibody) (VH): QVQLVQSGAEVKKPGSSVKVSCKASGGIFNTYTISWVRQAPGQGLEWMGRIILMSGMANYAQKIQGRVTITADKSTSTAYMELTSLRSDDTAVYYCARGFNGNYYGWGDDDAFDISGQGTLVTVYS
Sequence of S2X259 (antibody) (VL): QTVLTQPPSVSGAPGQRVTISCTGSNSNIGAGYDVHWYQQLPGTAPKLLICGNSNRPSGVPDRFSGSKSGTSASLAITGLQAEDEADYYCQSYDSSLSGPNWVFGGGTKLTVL
Sequence of S2X259 Fab (VH): as the sequence (VH) above
Sequence of S2X259 Fab (VL): as the sequence (VL) above

As to S2M11-LS (antibody), in [1], the neutralization EC50 (interpolated) was 0.0011 µg/mL, the neutralization EC90 (interpolated) amounted to 0.0144 µg/mL and the neutralization IC50 amounted to 0.000914 µg/mL.
What is called Kd is the constant that tells how readily two partners part at equilibrium. A lower Kd goes with tighter binding. As usually defined, the EC50 is the concentration that produces a half-maximal response. A high value points to weaker potency. For S2X259 (antibody), the dissociation constant Kd in assay [2] was 0.57 nM; in [3] it was 1.04 nM; in assay [4], 0.61 nM; in assay [5], 1.24 nM; in [15], 6.93 nM. Also, the EC50 is 0.0362 µg/mL in assay [6]; 0.0281 µg/mL in assay [7]; 0.001 to 0.05 µg/mL in [8]; 0.0376 µg/mL in assay [9]; 0.1 to 1 µg/mL in assay [10]; 0.001 to 0.05 µg/mL in assay [11]. For the same substance, the EC50 is 0.0308 µg/mL in assay [12], 0.0401 µg/mL in assay [13] and 0.001 to 0.05 µg/mL in assay [14]. Further, the results for the neutralization IC50 in assay [16] and in assay [17] were 1.32 µg/mL and 0.179 µg/mL, respectively.
As to S2E12-LS (antibody), in assay [1], the neutralization EC50 (interpolated) turned out to be 0.0014 µg/mL, the neutralization EC90 (interpolated) was determined as 0.0119 µg/mL and the neutralization IC50 is 0.0014 µg/mL.
With S2X259 Fab, the Kd is 4000 nM in [18]; 0.4 nM in assay [19]; 3.6 nM in [20]; 10 nM in assay [21]; 0.2 nM in assay [22]; 1.4 nM in [23]. Moreover, the Kd came out at 1.1 nM in [24] and 64 nM in [25].
